Here are results for 5 substances from patent US20170014527A1.

Assay [1] concerns the target human Trop-2 (human) (UniProt P09758). Description: cell-based or functional assay.
Assay [2] shares this target. In words: cell binding assay, cell line not stated.
For assay [3] the target is unchanged. Description: cell binding on NCI-N87 cells, anti-mouse-HRP, luminescence.
Assay [4] has the same target. In words: cell binding on NCI-N87 cells, Bmax against murine RS7 as reference.
The target is the same in assay [5]. In words: cell binding on NCI-N87 cells, 0.03 to 66 nM antibody, anti-mouse-HRP, luminescence.

human Trop-2 (human), sequence (P09758 27-323): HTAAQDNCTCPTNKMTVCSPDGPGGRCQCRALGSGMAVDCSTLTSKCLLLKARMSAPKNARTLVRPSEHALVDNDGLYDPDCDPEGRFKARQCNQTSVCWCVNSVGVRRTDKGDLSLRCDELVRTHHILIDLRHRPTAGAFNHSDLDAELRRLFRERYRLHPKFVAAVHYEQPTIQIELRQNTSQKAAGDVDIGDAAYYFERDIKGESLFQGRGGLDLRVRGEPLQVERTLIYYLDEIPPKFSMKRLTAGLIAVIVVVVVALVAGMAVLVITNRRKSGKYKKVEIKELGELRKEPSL

In assay [1], “humanized RS7 (hRS7) anti-Trop-2 antibody, unconjugated IgG” showed an ADCC, specific lysis of BxPC-3 cells by PBMCs (effector to target 100:1, antibody 33.3 nM) of 8.5%. Usually Kd stands for the concentration at which binding is half-saturated. High values mean weaker binding, low ones tighter binding. In assay [2], “hRS7-CL2A-SN-38 (hRS7 IgG conjugated to SN-38 by the CL2A linker) (antibody)” returned a Kd of 1.2 nM. The substance “MAB650 murine monoclonal antibody against human Trop-2 (R&D Systems)” yielded a maximum binding (Bmax) (relative luminescent units) in assay [3] of 6020. In addition, the reduction of maximum binding (Bmax) compared to RS7 in assay [4] came out at 50%. Further, the Kd in assay [5] was found to be 0.49 nM.

Regarding “hRS7-CL2-SN-38 (hRS7 IgG conjugated to SN-38 by the CL2 linker) (antibody)”, in assay [2], the Kd is 1.2 nM. That is a single-digit nanomolar value.

Take “162-46.2 murine monoclonal antibody against human Trop-2”: in assay [3], the maximum binding (Bmax) (relative luminescent units) is 8470. The same substance showed a reduction of maximum binding (Bmax) compared to RS7 in assay [4] of 25%. The substance also showed a Kd in assay [5] of 0.52 nM.
